Assay results: article PMC11706625, “Structural and bioinformatics analyses identify deoxydinucleotide-specific nucleases and their association with genomic islands in gram-positive bacteria” (Nucleic Acids Research, 2025)

Assays:
[1] = target: NrnC from Bartonella henselae (Bartonella henselae); assay: SEC-MALS; 1-2 mg/ml (~40-80 uM) protein injected on Superdex 200 Increase 10/300 GL in 25 mM HEPES-NaOH, 150 mM NaCl pH 7.5, room temperature
[2] = target: the molecule itself; assay: as above

In the case of NrnC from Bartonella henselae (enzyme), the stoichiometry N [1] is reported as 8.

B1: NrnC homolog from Okeania (Cyanobacteria) (enzyme)
chain: MSDFQVCDRDLTEAILSDYLQADSIAVDTETMGLLPWRDRLCLVQLCDAQGKVTAIRIEKGQQEAPNLKQLMEATGIVKIFHFARFDVAMLQHHLDIKVSPIFCTKIASKLARTYTGKHGLKDLVMELEKVELDKSAQSSDWGNAENLTEEQLSYAANDVRYLLSVKEKLIKMLKREERWELAQQCFECLPVFVGLDLLQYKDIFEH
For B1, the “stoichiometry N” value [2] was 8.
